This note sets out measurements from US20130337579, “Methods for Determining Protein Ligand Binding” (UNIVERSITY OF MARYLAND, COLLEGE PARK, published 2013).

Data set [1] has as its target CRP (catabolite activator protein, cAMP receptor protein) (Escherichia coli, UniProt P0ACJ8 P0ACJ8:2-210). The data set can be described thus: DRaCALA; 100 nM CRP, 4 nM probe, 200 uM cAMP. The settings on record: tags: His-CRP expressed from pBAD-CRP, Ni-NTA and anion exchange; chain copies: 2; label: 5'-32P.
Data set [2] deals with MBP (maltose binding protein) (UniProt P0AEX9 P0AEX9:27-396). Kind of data set: DRaCALA; 100 nM MBP, 4 nM probe, 200 uM cAMP.

CRP (catabolite activator protein, cAMP receptor protein), sequence (P0ACJ8 2-210, one chain of several): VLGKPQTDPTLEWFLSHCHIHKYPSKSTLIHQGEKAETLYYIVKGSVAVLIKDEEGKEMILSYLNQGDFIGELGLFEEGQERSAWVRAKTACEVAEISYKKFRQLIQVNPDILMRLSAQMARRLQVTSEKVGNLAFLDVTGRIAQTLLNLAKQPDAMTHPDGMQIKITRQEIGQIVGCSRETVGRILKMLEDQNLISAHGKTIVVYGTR

B1: 10:G-C oligo duplex (gd130/gd131) (dsDNA)
DNA 1: AGGAGGAATAAATGTCATCTAGATGACATTTTAGAGGAGG
DNA 2: CCTCCTCTAAAATGTCATCTAGATGACATTTATTCCTCCT
For B1, the binding result in data set [1] is on record as “no binding”.

B2: 8,10:G-C oligo duplex (gd132/gd133) (dsDNA)
DNA 1: AGGAGGAATAAATCTCATCTAGATGAGATTTTAGAGGAGG
DNA 2: CCTCCTCTAAAATCTCATCTAGATGAGATTTATTCCTCCT
B2: the binding result in data set [1] is listed as “no binding”.

B3: ICAP oligo duplex (gd126/gd127) (dsDNA)
DNA 1: AGGAGGAATAAATGTGATCTAGATCACATTTTAGAGGAGG
DNA 2: CCTCCTCTAAAATGTGATCTAGATCACATTTATTCCTCCT
Regarding B3, in data set [2], the binding result is reported as “no binding”.
